Here are results for 22 substances from patent US20160194653A1.

For the experiment, the target named is GAL4 activation domain-HAB1 fusion protein (UniProt Q9CAJ0). In words: cell-based or functional assay.
UniProt Q9CAJ0, sequence (Q9CAJ0 23-511 limits assumed): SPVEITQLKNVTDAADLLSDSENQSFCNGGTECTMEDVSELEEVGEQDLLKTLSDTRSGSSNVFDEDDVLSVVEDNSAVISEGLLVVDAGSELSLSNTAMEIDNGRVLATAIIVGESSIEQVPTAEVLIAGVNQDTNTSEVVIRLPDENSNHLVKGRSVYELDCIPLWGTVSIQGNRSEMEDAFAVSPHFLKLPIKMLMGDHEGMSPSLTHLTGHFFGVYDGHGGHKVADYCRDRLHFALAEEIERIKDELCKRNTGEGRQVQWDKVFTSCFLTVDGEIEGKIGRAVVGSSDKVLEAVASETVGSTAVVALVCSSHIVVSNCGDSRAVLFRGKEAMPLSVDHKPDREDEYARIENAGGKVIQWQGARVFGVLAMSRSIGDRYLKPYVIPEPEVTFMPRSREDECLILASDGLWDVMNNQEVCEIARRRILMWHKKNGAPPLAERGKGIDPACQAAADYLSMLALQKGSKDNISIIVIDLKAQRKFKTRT
As to “PYR1 mutant A160C (from UniProt P04386 1-147) (receptor)”, the Minimal conc. For ABA response stood at 0.25 µM.
Same read-out and setting: under “PYR1 mutant A160I (from UniProt P04386 1-147) (receptor)” stands 0.25 µM; under “PYR1 mutant A160V (from UniProt P04386 1-147) (receptor)”, 0.25 µM; under “PYR1 mutant E141C (from UniProt P04386 1-147) (receptor)”, 0.5 µM.
“PYR1 mutant E141I (from UniProt P04386 1-147) (receptor)” displayed a Minimal conc. For ABA response of 0.25 µM.
Still for that read-out and setting: under “PYR1 mutant E141L (from UniProt P04386 1-147) (receptor)” stands 0.25 µM.
Substance “PYR1 mutant E141M (from UniProt P04386 1-147) (receptor)” showed a Minimal conc. For ABA response of 0.25 µM.
On the same count and under the same terms, under “PYR1 mutant E141N (from UniProt P04386 1-147) (receptor)” stands 0.5 µM; under “PYR1 mutant E141T (from UniProt P04386 1-147) (receptor)”, 0.5 µM; under “PYR1 mutant E141V (from UniProt P04386 1-147) (receptor)”, 0.5 µM.
In the case of “PYR1 mutant E141W (from UniProt P04386 1-147) (receptor)”, the Minimal conc. For ABA response was found to be 0.5 µM.
Regarding “PYR1 mutant E141Y (from UniProt P04386 1-147) (receptor)”, the Minimal conc. For ABA response was determined as 0.25 µM.
The same measure, in the same setting: under “PYR1 mutant F61L (from UniProt P04386 1-147) (receptor)” stands 0.25 µM; under “PYR1 mutant F61M (from UniProt P04386 1-147) (receptor)”, 0.25 µM; under “PYR1 mutant I110C (from UniProt P04386 1-147) (receptor)”, 0.25 µM.
Same read-out and setting: under “PYR1 mutant I110S (from UniProt P04386 1-147) (receptor)” stands 0.5 µM.
Take “PYR1 mutant V81I (from UniProt P04386 1-147) (receptor)”: the Minimal conc. For ABA response came to 0.25 µM.
Same read-out and setting: under “PYR1 mutant V81Y (from UniProt P04386 1-147) (receptor)” stands 0.25 µM.
In turn, “PYR1F61L, A160C (from UniProt P04386 1-147) (receptor)” gave a uracil-independent growth (URA3 reporter, yeast two-hybrid) on medium with ABA of 50 nM.
“PYR1F61L, V81I, I110C, A160V (from UniProt P04386 1-147) (receptor)” gave a uracil-independent growth (URA3 reporter, yeast two-hybrid) on medium with ABA of 50 nM.
Substance “PYR1F61M, A160V (from UniProt P04386 1-147) (receptor)” registered a uracil-independent growth (URA3 reporter, yeast two-hybrid) on medium with ABA of 50 nM.
On the same count and under the same terms, under “PYR1F61M, I110S, A160V (from UniProt P04386 1-147) (receptor)” stands 50 nM.
